Positions count from the first letter of the chain named. Numbers in names are those of the source.
T1: human IL-2Rβ (human, UniProt P14784 27-240, limits assumed)
T1 construct: also called hIL-2Rβ; IL-2 receptor beta
T1 sequence (looked up): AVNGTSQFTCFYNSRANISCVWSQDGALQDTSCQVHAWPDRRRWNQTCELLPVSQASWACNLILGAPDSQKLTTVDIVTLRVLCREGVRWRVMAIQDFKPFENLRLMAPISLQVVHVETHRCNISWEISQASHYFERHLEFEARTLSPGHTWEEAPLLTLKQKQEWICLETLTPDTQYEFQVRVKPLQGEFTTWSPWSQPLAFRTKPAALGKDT

B1: xmPD-1-hIL15 V49R/E46G/E64Q/D30N/I68S (other)
heavy 1: HHHHHHHHGGGGSGSGGEVQLVESGGGLVKPGGSLELSCAASGFTFSSYWMSWVRQAPEKGLEWVAAISPSGGSTYYADSVKGRFTISRDNAKNTLFLQMTSLRSEDTAMYYCAKESWGAYYDLWGQGTTVTVSSASTKGPSVFPLAPCSRSTSESTAALGCLVKDYFPEPVTVSWNSGALTSGVHTFPAVLQSSGLYSLSSVVTVPSSNFGTQTYTCNVDHKPSNTKVDKTVERKCRVRCPRCPAPPVAGPSVFLFPPKPKDTLMISRTPEVTCVVVAVSHEDPEVQFNWYVDGVEVHNAKTKPREEQFNSTFRVVSVLTVVHQDWLNGKEYKCKVSNKGLPSSIEKTISKTKGQPREPQVYTLPPSREEMTKNQVSLTCLVKGFYPSDIAVEWESNGQPENNYKTTPPMLDSDGSFFLYSRLTVDKSRWQQGNVFSCSVMHEALHNHYTQKSLSLSPGK
heavy 2: EVQLVESGGGLVKPGGSLELSCAASGFTFSSYWMSWVRQAPEKGLEWVAAISPSGGSTYYADSVKGRFTISRDNAKNTLFLQMTSLRSEDTAMYYCAKESWGAYYDLWGQGTTVTVSSASTKGPSVFPLAPCSRSTSESTAALGCLVKDYFPEPVTVSWNSGALTSGVHTFPAVLQSSGLYSLSSVVTVPSSNFGTQTYTCNVDHKPSNTKVDKTVERKCEVECPECPAPPVAGPSVFLFPPKPKDTLMISRTPEVTCVVVAVSHEDPEVQFNWYVDGVEVHNAKTKPREEQFNSTFRVVSVLTVVHQDWLNGKEYKCKVSNKGLPSSIEKTISKTKGQPREPQVYTLPPSREEMTKNQVSLTCEVKGFYPSDIAVEWESNGQPENNYKTTPPMLDSDGSFFLYSKLTVDKSRWQQGNVFSCSVMHEALHNHYTQKSLSLSPGSGGGGGTSATATPGANWVNVISDLKKIEDLIQSMHIDATLYTESNVHPSCKVTAMKCFLLGLQRISLESGDASIHDTVQNLISLANNSLSSNGNVTESGCKECEELEEKNIKEFLQSFVHIVQMFINT
light: DIVMTQSPSSLSVSAGDKVTMSCRASQGISSWLAWYQQKPWQPPKLLIYKASTLESGVPDRFTGSGSGTDFTLTISSVQAEDLAVYYCQQSYSTPWTFGGGTKLEIKGTVAAPSVFIFPPSDEQLKSGTASVVCLLNNFYPREAKVQWKVDNALQSGNSQESVTEQDSKDSTYSLSSTLTLSKADYEKHKVYACEVTHQGLSSPVTKSFNRGEC
notes: not restated for this mutant; also called xmPD1-hIL15_V49R-E46G-E64Q-I68S-D30N
B2: xmPD-1-hIL15 V49R/E46G/E64Q/D30N/I68S/M109A (other)
heavy 1: B1 heavy 1
heavy 2: B1 heavy 2 with M567A
light: B1 light
notes: not restated for this mutant; also called xmPD1-hIL15_V49R-E46G-E64Q-I68S-D30N-M109A
B3: xmPD-1-hIL15 V49R/E46G/E64Q/D30N/N4K (other)
heavy 1: B1 heavy 1
heavy 2: B1 heavy 2 with N462K, S526I
light: B1 light
notes: not restated for this mutant; also called xmPD1-hIL15_V49R-E46G-N4K-E64Q-D30N
B4: xmPD-1-hIL15 V49R/E46G/E64Q/D30N/N4K/M109A (other)
heavy 1: B1 heavy 1
heavy 2: B1 heavy 2 with N462K, S526I, M567A
light: B1 light
notes: not restated for this mutant; also called xmPD1-hIL15_V49R-E46G-E64Q-N4K-D30N-M109A; xmPD-1-hIL15 VS49R/E46G/E64Q/D30N/N4K/M109A

Each binder was assayed against T2, human IL-15Rα (human, UniProt Q13261 31-205, limits assumed) (assay: SPR 37C, fusion captured by anti-human Fc).
T2 construct: also called hIL-15Rα; IL-15 receptor alpha
Procedure: (§1) Anti-human Fc sensor chips were prepared at 25° C. with a running buffer of 10 mM HEPES, 150 mM NaCl, 0.05% (v/v) Tween-20, pH 7.4. All surfaces of a Biacore CM4 sensor chip were activated with a 1:1 (v/v) mixture of 400 mM EDC and 100 mM NHS for 7 minutes, at a flow rate of 10 μL/min. An anti-human Fc reagent (Goat anti-human IgG Fc-γ specific, SouthernBiotech, Birmingham, Ala., Catalog #2014-01) was diluted to 50 μg/mL in 10 mM sodium acetate (pH 4.5) and injected on all flow cells for 7 minutes at 20 μL/min. All flow cells were blocked with 100 mM ethylenediamine in 200 mM Borate buffer pH 8.5 for 7 minutes at 10 μL/min.
(§2) All protein interaction experiments were performed at 37° C. using a running buffer of 10 mM HEPES, 150 mM NaCl, 0.05% (v/v) Tween-20, pH 7.4, 1 mg/mL BSA. Anti-PD-1-hIL-15 fusion proteins were captured at 10 μg/mL at a flow rate of 10 μL/min for 2 minutes. Different fusion proteins were captured in flow cells 2, 3 and 4. No protein was captured onto flow cell 1 which was used as a reference surface. […] After each analyte injection, dissociation was monitored for 5 minutes followed by regeneration of all flow cells with three 60-second injections of 75 mM phosphoric acid. […] For kinetic analysis, the double-referenced sensorgrams were fit globally to a simple 1:1 Langmuir with mass transport binding model using Biacore T200 Evaluation Software version 2.0. For steady-state affinity analysis, the double-referenced equilibrium binding responses were fit with a 1:1 Langmuir steady-state model using Biacore T200 Evaluation Software version 2.0.

T2 sequence (Q13261 31-205 limits assumed): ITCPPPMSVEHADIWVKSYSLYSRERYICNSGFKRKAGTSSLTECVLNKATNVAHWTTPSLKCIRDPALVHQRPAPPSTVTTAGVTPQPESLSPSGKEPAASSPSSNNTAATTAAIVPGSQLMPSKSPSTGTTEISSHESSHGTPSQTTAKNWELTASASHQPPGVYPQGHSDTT

Binding result, no binding (tested: 3000 nM):
B1
B2
B3
B4

These binders were tested against T1, human IL-2Rβ (assay: SPR 37C, fusion captured by anti-human Fc).
Procedure: as §1, §2

Binding result, no binding (tested: 3000 nM):
B1
B2
B3
B4
